Laboratory results from patent publication US20030138403A1.

Biological target: interferon gamma receptors on HeLa cells (UniProt P15260)
Assay: cell-based or functional assay

UniProt P15260, sequence (P15260 18-489 limits assumed): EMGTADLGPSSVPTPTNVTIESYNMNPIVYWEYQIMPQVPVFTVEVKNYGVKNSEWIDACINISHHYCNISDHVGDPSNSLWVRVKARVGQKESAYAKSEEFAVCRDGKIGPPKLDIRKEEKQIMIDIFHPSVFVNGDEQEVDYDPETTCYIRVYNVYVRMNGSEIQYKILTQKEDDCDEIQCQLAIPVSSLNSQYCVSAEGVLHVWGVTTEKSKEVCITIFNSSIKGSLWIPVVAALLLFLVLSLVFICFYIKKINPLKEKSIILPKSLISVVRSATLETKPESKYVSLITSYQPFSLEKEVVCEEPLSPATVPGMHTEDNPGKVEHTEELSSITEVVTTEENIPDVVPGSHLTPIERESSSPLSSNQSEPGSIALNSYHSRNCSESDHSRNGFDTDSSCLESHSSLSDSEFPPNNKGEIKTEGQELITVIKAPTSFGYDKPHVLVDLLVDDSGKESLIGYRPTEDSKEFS

| interferon gamma activity, Primary Assay (ISRE-luciferase reporter in HeLa cells), culture medium 24 h after transfection | specific activity as percent of the corresponding non-PEGylated interferon gamma variant, Primary Assay | specific activity, Primary Assay (ISRE-luciferase reporter in HeLa cells) | Substance |
| --- | --- | --- | --- |
| 1.3e+07 AU/ml |  |  | interferon gamma E38N+S40T+S99T variant (full-length, expressed from pIGY-54 in CHO K1 cells) (from UniProt P01579 24-161) (ligand) |
| 5.1e+06 AU/ml |  |  | interferon gamma S99T variant (full-length, expressed from pIGY-48 in CHO K1 cells) (from UniProt P01579 24-161) (ligand) |
|  | 15% | 2.4e+06 AU/mg | interferon gamma variant N59C+S99T (full-length) PEGylated with mPEG-MAL (5 kDa) (from UniProt P01579 24-161) (ligand) |
|  | 15% | 1.3e+06 AU/mg | interferon gamma variant N16C+S99T (full-length) PEGylated with mPEG-OPSS (10 kDa) (from UniProt P01579 24-161) (ligand) |
